Experimental findings from patent US20210363269A1 (ALX ONCOLOGY, published 2021) are described below.

Holding throughout (assay): SPR, Langmuir fit
For orientation: SPR reads the build-up and loss of mass on a sensor chip optically.

Assay [1] concerns the target T1, cynomolgus SIRP-α D1 domain (cyno2) (cynomolgus monkey, UniProt Q5TFQ8 30-148 (human entry), limits assumed).
T1 chain: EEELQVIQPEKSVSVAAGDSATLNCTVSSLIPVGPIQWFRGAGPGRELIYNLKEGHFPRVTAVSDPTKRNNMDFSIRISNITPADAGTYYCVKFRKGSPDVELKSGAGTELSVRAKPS
The procedure, abridged: (§1)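 Pre-filtered culture media supplied the scFv-Fc antibody clones, which were captured by anti-human IgG Fc amine-coupled (about 4000 RU) to a GLC chip on a ProteOn XPR36. SIRP analytes were flowed in PBS pH 7.4 with 0.01% Tween-20 at 25° C. Interspot and buffer-blank responses were subtracted from the data, which were then fitted to a 1:1 Langmuir model. Dissociation rate constants (koff) were derived from this fitting.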

A further assay has as its target T2, human SIRPγ isoform 1 (human, UniProt Q9P1W8 29-147).
T2 construct: also called SIRPg; sirpg
The procedure, abridged: as §1

Assay [2] deals with T3, human SIRP-α v2 D1 domain (human).
T3 construct: also called human v2
The essentials: as §1

The target of assay [3] is T4, C57BL/6 mouse SIRP-α D1 domain (mouse (C57BL/6 strain), UniProt P97797 32-148).
T4 sequence: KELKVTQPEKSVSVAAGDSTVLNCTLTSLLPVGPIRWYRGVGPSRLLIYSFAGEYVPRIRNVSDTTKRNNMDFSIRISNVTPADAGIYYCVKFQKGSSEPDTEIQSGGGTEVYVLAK
The procedure, abridged:
as §1

The target in assay [4] is T5, mouse 129 SIRP-α D1 domain (mouse (129 strain), UniProt P97797 32-150).
T5 construct: also called m129
T5 chain: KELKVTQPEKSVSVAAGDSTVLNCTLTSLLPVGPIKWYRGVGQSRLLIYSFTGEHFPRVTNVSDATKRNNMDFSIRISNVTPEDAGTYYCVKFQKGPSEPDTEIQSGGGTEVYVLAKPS
The procedure, abridged:
as §1

Assay [5] deals with T6, NOD mouse SIRP-α D1 domain (mouse (NOD strain)).
T6 chain: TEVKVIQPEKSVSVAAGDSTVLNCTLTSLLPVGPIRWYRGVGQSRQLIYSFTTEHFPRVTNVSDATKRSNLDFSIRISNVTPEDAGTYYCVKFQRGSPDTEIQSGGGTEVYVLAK
The essentials: as §1

For assay [6], the target named is T7, cynomolgus SIRP-α D1 domain (cyno1) (cynomolgus monkey, UniProt Q5TFQ8 30-148 (human entry), limits assumed).
T7 chain: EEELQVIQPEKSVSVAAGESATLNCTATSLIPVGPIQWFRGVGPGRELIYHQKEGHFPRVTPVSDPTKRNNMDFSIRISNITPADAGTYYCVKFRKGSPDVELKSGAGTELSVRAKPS
The essentials: as §1

In assay [7] the target is T8, human SIRP-α v1 D1 domain (human, UniProt P78324 31-149).
T8 construct: also called human v1
The procedure, abridged:
as §1

The target in the next assay is T9, human SIRPβ isoform 1 (human, UniProt O00241 30-148).
T9 construct: also called SIRPb; sirpb1
The essentials: as §1

Assay [8] addresses T10, high affinity SIRP-α D1 variant CV1-3.
T10 chain: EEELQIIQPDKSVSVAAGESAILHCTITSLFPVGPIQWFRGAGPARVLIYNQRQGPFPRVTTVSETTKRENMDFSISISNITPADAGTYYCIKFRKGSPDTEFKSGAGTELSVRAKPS
The procedure, abridged: as §1

T9 sequence (O00241 30-148 limits assumed): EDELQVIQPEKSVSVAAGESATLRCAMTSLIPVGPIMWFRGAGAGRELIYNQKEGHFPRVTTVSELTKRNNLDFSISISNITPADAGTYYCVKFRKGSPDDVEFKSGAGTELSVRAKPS
T3 sequence (chain, as listed by the source limits assumed): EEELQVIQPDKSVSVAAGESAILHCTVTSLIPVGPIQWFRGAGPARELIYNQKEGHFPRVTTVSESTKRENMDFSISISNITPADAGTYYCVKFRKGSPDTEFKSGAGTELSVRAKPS
T8 sequence (P78324 31-149 limits assumed): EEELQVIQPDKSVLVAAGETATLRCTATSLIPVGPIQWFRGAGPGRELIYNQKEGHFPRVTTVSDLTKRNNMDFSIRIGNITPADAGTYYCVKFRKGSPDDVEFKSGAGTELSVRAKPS
T2 sequence (Q9P1W8 29-147 limits assumed): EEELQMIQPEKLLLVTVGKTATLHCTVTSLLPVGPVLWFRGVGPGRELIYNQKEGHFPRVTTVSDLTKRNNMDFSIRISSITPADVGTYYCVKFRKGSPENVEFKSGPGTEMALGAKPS

B1: S76 (scFv, V domains shown)
VH: DVQLVESGGGVVRPGESLRLSCAASGFTFSSYAMSWVRQAPGKGLEWLAGISAGGSDTYYIDSVKGRFTISRDNSKNSLYLQMNSLTAEDTAVYYCARETWNHLFDYWGLGTLVTVSS
VL: ALTQPASVSANPGETVKITCSGGDWYSTYYGWYQQKSPGSAPVTVIHSDDKRPSDIPSRFSGSASGSAATLTITGVRVEDEAVYYCAGYDGRTYINTFGAGTTLTVL
notes: also called clone 76
The term koff denotes the first-order rate constant of dissociation. High values mean fast dissociation, low ones slow dissociation. As to B1, the koff in [1] was 0.000269 s⁻¹; with human SIRPγ isoform 1 it was 0.000177 s⁻¹; in assay [2], 0.000209 s⁻¹; in assay [3] it was 0.000998 s⁻¹; in [4], 0.000179 s⁻¹; in [5], 0.000576 s⁻¹. Moreover, the off-rate (koff) in assay [6] was 0.000277 s⁻¹; in assay [7], 0.00014 s⁻¹; in the assay with human SIRPβ isoform 1, 0.000187 s⁻¹; in assay [8], 0.000155 s⁻¹.

B2: S60 (scFv, V domains shown)
VH: DVQLVDSGGGVVRPGESLRLSCAASGFTFSSYAMSWVRQAPGKGLEWLAGISAGGSDTYYIDSVKGRFTISRDNSKNSLYLQMNSLTAEDTAVYYCARETWNHLFDYWGLGTLVTVSS
VL: ALTQPASVSANPGETVKITCSGGDYYSTYYGWYQQKSPGSAPVTVIHSDDKRPSDIPSRFSGSASGSAATLTITGVRVEDEAVYFCGAYDGRTYINTFGAGTTLTVL
notes: also called clone 60
In the case of B2, the koff in [1] is 0.000175 s⁻¹; with human SIRPγ isoform 1, 0.0001 s⁻¹; in assay [2] it was 0.000186 s⁻¹; in assay [3], 0.0015 s⁻¹; in assay [4], 0.000221 s⁻¹; in [5], 0.000726 s⁻¹. For the same molecule, the koff in assay [6] was determined as 0.000192 s⁻¹; in assay [7], 0.00014 s⁻¹; in the assay with human SIRPβ isoform 1 it was 0.000153 s⁻¹; in [8], 0.000145 s⁻¹.

B3: S23 (scFv, V domains shown)
VH: DVQLVESGGGVVRPGESLRLSCAASGFTFSSHAMSWVRQAPGKGLEWLAGISAGGSDTYYIDSVKGRFTISRDNSKSSLYLRMNSLTAEDTAVYYCARETWNHLFDYWGLGTLVTVSS
VL: ALTQPASVSANPGETVKITCSGGDYYSTYYAWYQQKSPGSAPVTVIHSDDERPSDIPSRFSGSASGSAATLIITGVRVEDEAVYFCGGYDGRTYINTFGAGTTLTVL
notes: also called clone 23
As to B3, the off-rate constant (koff) in assay [1] came out at 0.000183 s⁻¹; with human SIRPγ isoform 1 it was 0.000104 s⁻¹; in assay [2] it was 0.000135 s⁻¹; in assay [3] it was 0.00132 s⁻¹; in [4] it was 0.000134 s⁻¹; in assay [5], 0.000823 s⁻¹. For the same molecule, the dissociation rate constant (koff) in [6] was 0.00016 s⁻¹; in [7], 8.35e-05 s⁻¹; in the assay with human SIRPβ isoform 1, 0.000114 s⁻¹; in [8], 0.000106 s⁻¹.

B4: S17 (scFv, V domains shown)
VH: DVQLVESGGAVVRPGESLRLSCAASGFTFSSYAMSWVRQAPGKGLEWLAGISAGGSDTYYIDSVKGRFTISRDNSENSLYLQMNSLTAEDTAVYYCARETWNHLFDYWGLGTLVTVSS
VL: ALTQPASVSANPGETVKITCSGGDWYSTYYGWYQQKSPGSAPVTVIHSDDKRPSDIPSRFSGSASGSAATLTITGVRVEDEAVYYCAGYDGRTYINTFGAGTTLTVL
notes: also called clone 17
Turning to B4, the koff in [1] was 0.000207 s⁻¹; in the assay with human SIRPγ isoform 1, 0.000102 s⁻¹; in assay [2], 0.000197 s⁻¹; in [3] it was 0.00113 s⁻¹; in assay [4] it was 0.000234 s⁻¹; in assay [5] it was 0.000612 s⁻¹. Also, the koff in assay [6] was 0.000193 s⁻¹; in assay [7], 0.000124 s⁻¹; with human SIRPβ isoform 1, 0.000125 s⁻¹; in assay [8], 0.000154 s⁻¹.

B5: S56 (scFv, V domains shown)
VH: DVQLVESGGGVVRPGESLRLSCAASGFTFSSYAMSWVRQAPGKGLEWLAGISAGGSDTYYIDSVKGRFTISRDNSKNSLYLQVNSLTAEDTAVYYCARETWNHLFDYWGLGTLVTVSS
VL: ALTQPASVSANPGETVKITCSGGGYYSTYYGWYQQKSPGSAPVTVIHSDDKRPSDIPSRFSGSASGSAATLTITGVRVEDEAVYYCAGYDGRTYINTFGAGTTLTVL
notes: also called clone 56
On to B5, for which the dissociation rate constant (koff) in assay [1] amounted to 0.00028 s⁻¹; with human SIRPγ isoform 1 it was 0.000215 s⁻¹; in [2], 0.000286 s⁻¹; in assay [3], 0.00429 s⁻¹; in assay [4], 0.000406 s⁻¹; in assay [5], 0.00106 s⁻¹. In addition, the koff in assay [6] worked out at 0.000295 s⁻¹; in [7], 0.000228 s⁻¹; with human SIRPβ isoform 1, 0.000362 s⁻¹; in assay [8], 0.000203 s⁻¹.

B6: S16 (scFv, V domains shown)
VH: DVQLVESGGGVVRPGESLRLSCAVSGFRFSSYAMSWVRQAPGKGLEWVSGISSGGDTYYVDSVKGRFTISRDNSKNTLYLQVNSLTAEDTAIYYCARETWNHLFDYWGLGTLVTVSS
VL: ALTQPASVSANLGETVKITCSGGDSSSHYYGWYQQKSPGSAPVTVIYSDDERPSDIPSRFSGSASGSTATLTITGVRVEDEAIYYCGAYDGSTYANTFGAGTTLTVL
notes: also called clone 16
Regarding B6, the koff was found to be 0.000138 s⁻¹ in assay [1]; 8.17e-05 s⁻¹ with human SIRPγ isoform 1; 0.000111 s⁻¹ in [2]; 0.00235 s⁻¹ in [3]; 0.000176 s⁻¹ in assay [4]; 0.00128 s⁻¹ in assay [5]. The koff in assay [6] was found to be 0.000132 s⁻¹; in assay [7] it was 6.22e-05 s⁻¹; in the assay with human SIRPβ isoform 1 it was 0.000113 s⁻¹; in assay [8] it was 0.0001 s⁻¹.

B7: S27 (scFv, V domains shown)
VH: DVQLVESGGGVVRPGESLRLSCAVSGFRFSSYAMSWVRQAPGKGLEWVSGISSGGDTYYVDSVKGRFTISRDNSKNTLYLQVNSLTAEDTAIYYCARETWNHLFDYWGLGTLVTVSS
VL: ALTQPASVSADLGETVKITCSGGDSSSHYYGWYQQKSPGSAPVTVIYSDDERPSDIPSRFSGSASGSTATLTITGVRVEDEAIYYCGAYDGSTYANTFGAGTTLTVL
notes: also called clone 27; scFv-Fc form of AB27
For the molecule B7, the koff came to 0.000161 s⁻¹ in [1]; 9.46e-05 s⁻¹ in the assay with human SIRPγ isoform 1; 9.97e-05 s⁻¹ in [2]; 0.00184 s⁻¹ in assay [3]; 0.000136 s⁻¹ in [4]; 0.0013 s⁻¹ in [5]. Also, the dissociation rate constant (koff) in assay [6] was 0.000138 s⁻¹; in assay [7], 5.81e-05 s⁻¹; in the assay with human SIRPβ isoform 1, 8.97e-05 s⁻¹; in assay [8], 8.94e-05 s⁻¹.

B8: S59 (scFv, V domains shown)
VH: DVQLVESGGGVVRPGESLRLSCAVSGFRFSSHAMSWVRQAPGKGLEWVSGISSGGDTYYVDSVKGRFTISRDNSKNTLYLQVNSLTAEDTAIYYCARETWNHLFDYWGLGTLVTVSS
VL: ALTQPASVSANLGETVKITCSGGDSSSHYYGWYQQKSPGSAPVTVIYSDDERPSDIPSRFSGSASGSTATLTITGVRVEDEAIYYCGAYDGSTYANTFGAGTTLTVL
notes: also called clone 59
For the molecule B8, the koff in [1] is 0.000113 s⁻¹; with human SIRPγ isoform 1, 4.28e-05 s⁻¹; in assay [2], 8.63e-05 s⁻¹; in assay [3], 0.00239 s⁻¹; in assay [4], 0.000209 s⁻¹; in [5], 0.00135 s⁻¹. Moreover, the koff in assay [6] came out at 0.000106 s⁻¹; in [7], 4.98e-05 s⁻¹; with human SIRPβ isoform 1 it was 0.000107 s⁻¹; in assay [8] it was 8.19e-05 s⁻¹.

B9: S55 (scFv, V domains shown)
VH: DVQLVESGGGVVRPGESLRLSCAVSGFRFSSYAMSWVRQAPGKGLEWVSGISSGGDTYYVDSVKGRFTISRDNSKNTLYLQVNSLTAEDTAIYYCARETWNHLFDYWGLGTLVTVSS
VL: ALTQPASVSANLGETVEITCSGGDSSSHYYGWYQQKSPGSAPVTVIYSDDERPSDIPSRFSGSASGSTATLTITGVRVEDEAIYYCGAYDGSTYANTFGAGTTLTVL
notes: also called clone 55
In the case of B9, the off-rate constant (koff) in [1] came to 0.000116 s⁻¹; with human SIRPγ isoform 1 it was 4.69e-05 s⁻¹; in assay [2], 7.16e-05 s⁻¹; in assay [3], 0.00197 s⁻¹; in assay [4], 0.000143 s⁻¹; in [5], 0.00119 s⁻¹. For the same molecule, the off-rate constant (koff) in assay [6] turned out to be 9.63e-05 s⁻¹; in [7] it was 4.18e-05 s⁻¹; with human SIRPβ isoform 1, 6.48e-05 s⁻¹; in [8], 6e-05 s⁻¹.
